Measurements taken from publication PMC12052159.

Tests used:
Experiment in all cases: EMSA
Conditions in all cases: EMSA with 5' 32P PCR fragments, MarA 1, 2 or 4 uM, PAGE at 150 V; buffer, salt, pH and temperature not given (cited method)
[1] = target: T1, MarA (Escherichia coli) (UniProt P0ACH5)
T1 sequence: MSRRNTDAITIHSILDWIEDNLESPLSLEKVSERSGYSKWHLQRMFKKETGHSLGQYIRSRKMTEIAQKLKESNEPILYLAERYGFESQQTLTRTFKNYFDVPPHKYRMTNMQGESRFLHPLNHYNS

[2] = target: T2, Rob (Escherichia coli) (UniProt P0ACI0)
T2 sequence: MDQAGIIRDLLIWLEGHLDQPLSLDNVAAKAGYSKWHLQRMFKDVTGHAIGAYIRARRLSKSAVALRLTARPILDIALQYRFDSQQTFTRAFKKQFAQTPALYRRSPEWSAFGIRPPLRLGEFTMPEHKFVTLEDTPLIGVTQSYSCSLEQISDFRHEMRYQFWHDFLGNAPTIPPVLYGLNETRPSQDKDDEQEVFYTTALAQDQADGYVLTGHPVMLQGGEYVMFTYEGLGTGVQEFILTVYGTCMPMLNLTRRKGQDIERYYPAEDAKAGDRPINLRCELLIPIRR

[3] = target: T3, SoxS (Escherichia coli) (UniProt P0A9E2)
T3 sequence: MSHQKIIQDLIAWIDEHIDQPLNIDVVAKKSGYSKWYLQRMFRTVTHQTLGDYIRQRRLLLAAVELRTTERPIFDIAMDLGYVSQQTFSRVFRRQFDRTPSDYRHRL

Row | Sequence | binding [1] | binding [2] | binding [3]
1 | AATTCCATGGTGTACGGTTCCTGCGAGATGGGAAAGTAAAAATCCGCGGCATGATATAGCAATTATCGATAATTAACATCCACACATTTTACGCTACATTTGCGCATTAAAAATTATTTGTTATTTACAAGCGCGGCAAGGGCCGCCAGTCTTCAGCCACAAATTTTGGTTGCGGGCGAAAAAATGCGACAATACATACAATTGCCCGAATAGGTTGAAAAACAGGATTGATATGAAGCTTCGGGC / GCCCGAAGCTTCATATCAATCCTGTTTTTCAACCTATTCGGGCAATTGTATGTATTGTCGCATTTTTTCGCCCGCAACCAAAATTTGTGGCTGAAGACTGGCGGCCCTTGCCGCGCTTGTAAATAACAAATAATTTTTAATGCGCAAATGTAGCGTAAAATGTGTGGATGTTAATTATCGATAATTGCTATATCATGCCGCGGATTTTTACTTTCCCATCTCGCAGGAACCGTACACCATGG [lpxLmut3 regulatory region] | binds |  | 
2 | GCCCGAAGCTTCATATCAATCCTGTTTTTCAACCTATTCGGGCAATTGTATGTATTGTCGCATTTTTTCGCCCGCAACCAAAATTTGTGGCTGAAGACTGGGCGAAATTGCCGCGCTTGTAAATAACAAATAATTTTTAATGCGCAAATGTAGCGTAAAATGTGTGGATGTTAATTATCGATAATTGCTATATCATGCCGCGGATTTTTACTTTCCCATCTCGCAGGAACCGTACACCATGG / AATTCCATGGTGTACGGTTCCTGCGAGATGGGAAAGTAAAAATCCGCGGCATGATATAGCAATTATCGATAATTAACATCCACACATTTTACGCTACATTTGCGCATTAAAAATTATTTGTTATTTACAAGCGCGGCAATTTCGCCCAGTCTTCAGCCACAAATTTTGGTTGCGGGCGAAAAAATGCGACAATACATACAATTGCCCGAATAGGTTGAAAAACAGGATTGATATGAAGCTTCGGGC [lpxL regulatory region] | binds | binds | binds
3 | GCCCGAAGCTTCATGATGAGCATTCAGATAGTGGTTCACGCGCACGGGTTGCGCACCGCCGGAGTAAGGATTTACTGAGGCTAGCGACGCCATCATAACGAGCAAAAAGTGCGATCGTCAAAGGAGAATCGTGAGGAAATGCTGCATTGCTGACATTTACGCCG / AATTCGGCGTAAATGTCAGCAATGCAGCATTTCCTCACGATTCTCCTTTGACGATCGCACTTTTTGCTCGTTATGATGGCGTCGCTAGCCTCAGTAAATCCTTACTCCGGCGGTGCGCAACCCGTGCGCGTGAACCACTATCTGAATGCTCATCATGAAGCTTCGGGC [pbpG regulatory region] | binds |  | 
4 | GCCCGAAGCTTCATATCAATCCTGTTTTTCAACCTATTCGGGCAATTGTATGTATTGTCGCATTTTTTCGCCCGCAACCAAAATTTGTGGCTGAAGACTGGGCGAAATTGCCGCGCTTGTAAATAACAAATAATTTTTAATGCGCAAATGTAGCGTAAAATGTGTGGATGTTAATTATCGATAATACATATATCATGCCGCGGATTTTTACTTTCCCATCTCGCAGGAACCGTACACCATGG / AATTCCATGGTGTACGGTTCCTGCGAGATGGGAAAGTAAAAATCCGCGGCATGATATATGTATTATCGATAATTAACATCCACACATTTTACGCTACATTTGCGCATTAAAAATTATTTGTTATTTACAAGCGCGGCAATTTCGCCCAGTCTTCAGCCACAAATTTTGGTTGCGGGCGAAAAAATGCGACAATACATACAATTGCCCGAATAGGTTGAAAAACAGGATTGATATGAAGCTTCGGGC [lpxLmut1 regulatory region] | binds more weakly |  | 
5 | GCCCGAAGCTTCATATCAATCCTGTTTTTCAACCTATTCGGGCAATTGTATGTATTGTCGCATTTTTTCGCCCGCAACCAAAATTTGTGGCTGAAGACTGGGCGAAATTGCCGCGCTTGTAAATAACAAATAATTTTTAATGCTGTAATGTAGCGTAAAATGTGTGGATGTTAATTATCGATAATTGCTATATCATGCCGCGGATTTTTACTTTCCCATCTCGCAGGAACCGTACACCATGG / AATTCCATGGTGTACGGTTCCTGCGAGATGGGAAAGTAAAAATCCGCGGCATGATATAGCAATTATCGATAATTAACATCCACACATTTTACGCTACATTACAGCATTAAAAATTATTTGTTATTTACAAGCGCGGCAATTTCGCCCAGTCTTCAGCCACAAATTTTGGTTGCGGGCGAAAAAATGCGACAATACATACAATTGCCCGAATAGGTTGAAAAACAGGATTGATATGAAGCTTCGGGC [lpxLmut2 regulatory region] | binds |  | 
6 | AATTCTGCAACTAAACCGTGGCACAAATGGGCAATTTATCCATCGGTAAAATACTATAAAATAGCTTTAGAAAATTCCCCCTGGAAAGATGACTCTCCACGAGATGCGAAATCAATTATTGAATTTAAAAAAAGATATAAACATCTTTTAGTGCAACATCATTATATCTCAGGAATTATAGCAGGAGTCTGTTATCTTTGCCGAAAATATTACCGTAAATAACATTTAACTGGTTTATTATGAAGCTTCGGGC / GCCCGAAGCTTCATAATAAACCAGTTAAATGTTATTTACGGTAATATTTTCGGCAAAGATAACAGACTCCTGCTATAATTCCTGAGATATAATGATGTTGCACTAAAAGATGTTTATATCTTTTTTTAAATTCAATAATTGATTTCGCATCTCGTGGAGAGTCATCTTTCCAGGGGGAATTTTCTAAAGCTATTTTATAGTATTTTACCGATGGATAAATTGCCCATTTGTGCCACGGTTTAGTTGCAG [rfaY (waaY) regulatory region] | binds | binds | binds
7 | AATTCATTGGCCAGAGGGTTTGGTTGGGTGAGAATGTGACGGTTTTGCCTGGAACAATTATTGGTAATGGAGTCGTAGTCGGCGCCAATTCTGTTGTTAGAGGTTCTATTCCCGAAAATACTGTCATTGCGGGAGTACCAGCAAAAATCATAAAGAAATACAATCATGAGACCAAATTATGAAGCTTCGGGC / GCCCGAAGCTTCATAATTTGGTCTCATGATTGTATTTCTTTATGATTTTTGCTGGTACTCCCGCAATGACAGTATTTTCGGGAATAGAACCTCTAACAACAGAATTGGCGCCGACTACGACTCCATTACCAATAATTGTTCCAGGCAAAACCGTCACATTCTCACCCAACCAAACCCTCTGGCCAATG [wbbK regulatory region] | no binding |  | 
8 | GCCCGAAGCTTCATAACTGTAACCTTCGAATTATGGAGTCAGAGACAATCTCAGACACGAATGTCTGTAATCATACCATCACATCCGAATCCCTTCAGCCCTTTACATAGAGGTGCAAGGATGCTAATTGCAACAAACTAGTTTGGGTTTTAGCTAGTCCTTCATGGCGGATGTTGGTTTTGCATGTGAATAGTGCG / AATTCGCACTATTCACATGCAAAACCAACATCCGCCATGAAGGACTAGCTAAAACCCAAACTAGTTTGTTGCAATTAGCATCCTTGCACCTCTATGTAAAGGGCTGAAGGGATTCGGATGTGATGGTATGATTACAGACATTCGTGTCTGAGATTGTCTCTGACTCCATAATTCGAAGGTTACAGTTATGAAGCTTCGGGC [waaD regulatory region] | no binding |  | 
9 | GCCCGAAGCTTCATAGTAAATAGCTGACTTATGGATGTGCTGGGGATTCTATGTATTTAGCTGTGGCTTTACCATTACTTTTCCCGTTTTTGACTTAAATAGCTTCAGTTTGGTCTGATCTGCCGCTACATCTTCATTTTTTTTGTATTTTTATGCGATTCATTGAAACTCGGCCCG / AATTCGGGCCGAGTTTCAATGAATCGCATAAAAATACAAAAAAAATGAAGATGTAGCGGCAGATCAGACCAAACTGAAGCTATTTAAGTCAAAAACGGGAAAAGTAATGGTAAAGCCACAGCTAAATACATAGAATCCCCAGCACATCCATAAGTCAGCTATTTACTATGAAGCTTCGGGC [kdtA (waaA) regulatory region] | binds |  | 
10 | AATTCTGCGTAAGCAAGCTGATTAAGAATTGACTGGAATTTGGGTTTCGAGTGTGTTTGTGCTAAACTGGCCCGCCGAATGTATAGTACACTTCGGTTGGATAGGTAATTTGGCGAGATAATACGATGAAGCTTCGGGC / GCCCGAAGCTTCATCGTATTATCTCGCCAAATTACCTATCCAACCGAAGTGTACTATACATTCGGCGGGCCAGTTTAGCACAAACACACTCGAAACCCAAATTCCAGTCAATTCTTAATCAGCTTGCTTACGCAG [lpxCmut regulatory region] | binds more weakly |  | 
11 | GCCCGAAGCTTCATGATGAGCATTCAGATAGTGGTTCACGCGCACGGGTTGCGCACCGCCGGAGTAAGGATTTACTGAGGCTAGCGACGCCATCATAACGAGCAAAAAGACAGATCGTCAAAGGAGAATCGTGAGGAAATGCTGCATTGCTGACATTTACGCCG / AATTCGGCGTAAATGTCAGCAATGCAGCATTTCCTCACGATTCTCCTTTGACGATCTGTCTTTTTGCTCGTTATGATGGCGTCGCTAGCCTCAGTAAATCCTTACTCCGGCGGTGCGCAACCCGTGCGCGTGAACCACTATCTGAATGCTCATCATGAAGCTTCGGGC [pbpGmut regulatory region] | no binding |  | 
12 | GCCCGAAGCTTCATCGTATTATCTCGCCAAATTACCTATCCAACCGAAGTGTACTATACATTCGGCGGGCCAGTTTAGCACAAAGAGCCTCGAAACCCAAATTCCAGTCAATTCTTAATCAGCTTGCTTACGCAG / AATTCTGCGTAAGCAAGCTGATTAAGAATTGACTGGAATTTGGGTTTCGAGGCTCTTTGTGCTAAACTGGCCCGCCGAATGTATAGTACACTTCGGTTGGATAGGTAATTTGGCGAGATAATACGATGAAGCTTCGGGC [lpxC regulatory region] | binds | binds | binds
